Experimental data as given in patent US7659073.

Assays:
[1] = tested on: [-2]pPSA
[2] = tested on: [-4]pPSA
[3] = tested on: [-5]pPSA
[4] = tested on: [-7]pPSA

human kallikrein 2 (hK2)
relative rate of pPSA activation by hK2 (HIC-HPLC) [1]: [-2]pPSA was not activated by hK2 | relative rate of pPSA activation by hK2 (HIC-HPLC) [2]: the [-4]pPSA was activated more slowly | relative rate of pPSA activation by hK2 (HIC-HPLC) [3]: The [5/-7]pPSA was activated most rapidly | relative rate of pPSA activation by hK2 (HIC-HPLC) [4]: The [5/-7]pPSA was activated most rapidly

trypsin
cleavage of the pro leader by trypsin (N-terminal sequencing) [1]: there was little or no cleavage to release the SR dipeptide of the [-2]pPSA (data not shown)
